From PMC13123425

Biological target: T1, human VWF-A2 fragment
T1 chain: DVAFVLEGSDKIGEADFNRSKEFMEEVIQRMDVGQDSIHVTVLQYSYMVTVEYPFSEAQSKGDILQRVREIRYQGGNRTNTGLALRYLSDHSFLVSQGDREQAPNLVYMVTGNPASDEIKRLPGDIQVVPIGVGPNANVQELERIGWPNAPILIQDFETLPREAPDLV
Test: microscale thermophoresis
Set-up: unit not given beside the values
Conditions: chain shown with the change;; parent: est. 6.2e-9; read off a plot

- EC50: 2.3e-09
B1: human recombinant wild-type complement factor H, P08603 W1183R (protein)
chain: EDCNELPPRRNTEILTGSWSDQTYPEGTQAIYKCRPGYRSLGNVIMVCRKGEWVALNPLRKCQKRPCGHPGDTPFGTFTLTGGNVFEYGVKAVYTCNEGYQLLGEINYRECDTDGWTNDIPICEVVKCLPVTAPENGKIVSSAMEPDREYHFGQAVRFVCNSGYKIEGDEEMHCSDDGFWSKEKPKCVEISCKSPDVINGSPISQKIIYKENERFQYKCNMGYEYSERGDAVCTESGWRPLPSCEEKSCDNPYIPNGDYSPLRIKHRTGDEITYQCRNGFYPATRGNTAKCTSTGWIPAPRCTLKPCDYPDIKHGGLYHENMRRPYFPVAVGKYYSYYCDEHFETPSGSYWDHIHCTQDGWSPAVPCLRKCYFPYLENGYNQNYGRKFVQGKSIDVACHPGYALPKAQTTVTCMENGWSPTPRCIRVKTCSKSSIDIENGFISESQYTYALKEKAKYQCKLGYVTADGETSGSITCGKDGWSAQPTCIKSCDIPVFMNARTKNDFTWFKLNDTLDYECHDGYESNTGSTTGSIVCGYNGWSDLPICYERECELPKIDVHLVPDRKKDQYKVGEVLKFSCKPGFTIVGPNSVQCYHFGLSPDLPICKEQVQSCGPPPELLNGNVKEKTKEEYGHSEVVEYYCNPRFLMKGPNKIQCVDGEWTTLPVCIVEESTCGDIPELEHGWAQLSSPPYYYGDSVEFNCSESFTMIGHRSITCIHGVWTQLPQCVAIDKLKKCKSSNLIILEEHLKNKKEFDHNSNIRYRCRGKEGWIHTVCINGRWDPEVNCSMAQIQLCPPPPQIPNSHNMTTTLNYRDGEKVSVLCQENYLIQEGEEITCKDGRWQSIPLCVEKIPCSQPPQIEHGTINSSRSSQESYAHGTKLSYTCEGGFRISEENETTCYMGKWSSPPQCEGLPCKSPPEISHGVVAHMSDSYQYGEEVTYKCFEGFGIDGPAIAKCLGEKWSHPPSCIKTDCLSLPSFENAIPMGEKKDVYKAGEQVTYTCATYYKMDGASNVTCINSRWTGRPTCRDTSCVNPPTVQNAYIVSRQMSKYPSGERVRYQCRSPYEMFGDEEVMCLNGNWTEPPQCKDSTGKCGPPPPIDNGDITSFPLSVYAPASSVEYQCQNLYQLEGNKRITCRNGQWSEPPKCLHPCVISREIMENYNIALRRTAKQKLYSRTGESVEFVCKRGYRLSSRSHTLRTTCWDGKLEYPTCAKR
